Assay results as given in publication PMC4310633 (Biochemistry, 2014).

Molecular target: the molecule itself
Test: AUC

Protein | stoichiometry N
ligand binding domain (LBD) of the GluN1 subunit of the NMDA receptor (domain or fragment) not shown | 2
ligand binding domain (LBD) of the GluN2A subunit of the NMDA receptor (domain or fragment) not shown | 2
